How the values were obtained:
HEM-DP melanocytes = experiment: Melanin content assay (melanin/protein); format: cell-based, human; details: NRG-1 50 ng/ml
Procedure: FIGS. 6A and 6B are bar graphs illustrating the effect of NRG-1 on the pigmentation of cultured human melanocytes. FIG. 6A) Lightly-pigmented (HEM-LP) and FIG. 6B) Darkly-pigmented (HEM-DP) melanocytes were treated with or without NRG-1 (50 ng/ml) for 1, 3, 5 or 9 days and proteins were extracted from each sample. After centrifugation at 10,000 g for 15 minutes, precipitates were analyzed for melanin content, and the supernatants were analyzed for protein content. Results are the average of three studies±SD; statistically significant differences are indicated.
FIGS. 9A and 9B are digital images illustrating the effect of pan-ERBB inhibitors on NRG-1 action on human melanocytes and MelanoDerms. FIG. 9A) HEM-DP melanocytes were treated for 9 days with 50 ng/ml NRG-1 in the presence of C39 (0.5 μM) or CI-1033 (2 μM) or vehicle (DMSO) alone. The results are the averages of 3 independent studies±SD. FIG. 9B) Dark MelanoDerms were treated for 9 days with 50 ng/ml NRG-1 in the presence of C39 (0.5 μM) or CI-1033 (2 μM) or vehicle (DMSO) alone. L values shown are the average of 3 spots measured in the center of each Melanoderm.
Melanin contents were determined by dissolving cell pellets overnight at room temperature in 200 μl 1 N NaOH, and melanin concentrations were quantitated by absorbance at 405 nm in a SpectraMax 250 ELISA reader (Molecular Devices) using a standard curve generated from synthetic melanin (Sigma-Aldrich, St. Louis, Mo.). Melanin content is expressed as μg melanin per μg protein. Each study was repeated at least three times.
The effects of NRG-1 on the pigmentation of human melanocytes were also examined. […] However, on day 9, when the cells had reached confluence, the pigmentation level of NRG-1-treated HEM-LP melanocytes was about 35% higher than the control (FIG. 6A).
The EGF domain of NRG-1 can activate the NRG-1 receptors. Two exemplary EGF domains of NRG-1 were aligned (SEQ ID NOs: 9 and 10) and 5 different […] peptides within these two sequences were designed (FIG. 12). Darkly-pigmented human epidermal melanocytes (HEM-DP) were treated with each of the […] peptides (100 nM) or the commercially available rhNRG-1 (6.25 nM) or the vehicle only (0.1% BSA in PBS) every other day for 7 days.
In particular, HEM-DP were treated with each of the 8-mer peptides (WC-6, […], amino acids 3-10 of SEQ ID NO: 10; WC-7, […], amino acids 8-15 of SEQ ID NO: 10; WC-8, […], amino acids 12-19 of SEQ ID NO: 10; WC-9, […], amino acids 16-23 of SEQ ID NO: 10; WC-10, […], amino acids 20-27 of SEQ ID NO: 10; 100 nM) or the full length EGF domain of NRG-1 (WC-11, SEQ ID NO: 10, 100 nM) or the commercially available rhNRG-1 (SEQ ID NO: 11, 6.25 nM) or vehicle only (0.1% BSA in PBS) every day for 9 days.

ERBB2 mRNA = ERBB2 mRNA level by RT-PCR in melanocytes; format: cell-based, human; details: HEM-LP and HEM-DP, NRG-1 50 ng/ml, 1 day, vs controls
Procedure: FIGS. 8A and 8B are digital images illustrating the mechanism of ERBB2 abrogation after NRG-1 treatment. FIG. 8A) ERBB2 mRNA levels in HEM-LP and in HEM-DP melanocytes were detected by RT-PCR after treatment with or without NRG-1 (50 ng/ml) for 1 day. FIG. 8B) MG132 (120 nM) was added to the melanocyte culture medium to inhibit proteasomal degradation during treatment of HEM-LP and HEM-DP melanocytes with or without NRG-1 (50 ng/ml). Proteins were extracted for each sample, and ERBB2 levels were detected by western blotting. Results are representative of three studies.
Total RNAs were isolated from cells using an RNeasy mini kit (Qiagen, Valencia, Calif.), and 500 ng RNA of each sample was used for reverse transcription. […]
Whether the decrease in ERBB2 level elicited by NRG-1 was due to transcriptional regulation or to proteasomal degradation was further explored. When ERBB2 mRNA levels were measured after 1 day of treatment with NRG-1, NRG-1 treated cells and controls were similar both for HEM-LP and for HEM-DP melanocytes (FIG. 8A) despite the marked decrease in ERBB2 protein expression noted above.

B1: NRG-1: commercially available recombinant human neuregulin-1 (rhNRG-1-β1, R&D Systems), SEQ ID NO: 11 (protein)
chain: TSHLVKCAEKEKTFCVNGGECFMVKDLSNPSRYLCKCPNEFTGDRCQNYVMASFYKHLGIEFMEAEELYQK
For B1, the “Melanin content, NRG-1 alone” value (HEM-DP melanocytes; 9 days, vehicle DMSO) was “stimulated melanin content”, the Pigmentation level (HEM-DP melanocytes; day 9, vs controls) was “remained higher” and the Pigmentation level (HEM-DP melanocytes; starting at day 5, subconfluent, vs controls) was “higher than the controls”. For the same molecule, the “ERBB2 mRNA levels” value (ERBB2 mRNA) was “similar”.

From patent US9168297B2, “Regulation of skin pigmentation by neuregulin-1 (NRG-1)” (The United States of America, as Represented by the …, priority 2010, dated 2015)
